The values that follow come from publication PMC7950113.

What all share (assay): Co-AP mass spectrometry with TMT quantification
Common to all, as to details: TMT intensities of interactors normalized to Tg intensities, read off a plot

Assay [1] deals with SEL1L adaptor subunit of ERAD E3 ubiquitin ligase [human (endogenous in HEK293 cells)].
Assay [2] concerns the target OS9 endoplasmic reticulum lectin [human (endogenous in HEK293 cells)].
In assay [3] the target is UDP-glucose glycoprotein glucosyltansferase 1 [human (endogenous in HEK293 cells)].
Assay [4] has as its target oligosaccharyl transferase complex catalytic subunit B [human (endogenous in HEK293 cells)].
For assay [5], the target named is calnexin [human (endogenous in HEK293 cells)].
The target in assay [6] is ER degradation enhancing alpha-mannosidase-like 3 [human (endogenous in HEK293 cells)].
Assay [7] has as its target glucosidase II alpha subunit [human (endogenous in HEK293 cells)].

In assay [1], “FLAG-tagged thyroglobulin, WT mutant A2234D [human] / SEL1L adaptor subunit of ERAD E3 ubiquitin ligase [human (endogenous in HEK293 cells)] chain 1 A2215D” registered a screen value of 0.57 log2.

In the case of “FLAG-tagged thyroglobulin, WT mutant C1264R [human] / OS9 endoplasmic reticulum lectin [human (endogenous in HEK293 cells)] chain 1 C1245R”, the screen value in assay [2] was determined as 0.39 log2.

In the case of “FLAG-tagged thyroglobulin, WT mutant G2341R [human] / SEL1L adaptor subunit of ERAD E3 ubiquitin ligase [human (endogenous in HEK293 cells)] chain 1 G2322R”, in assay [1], the screen value stood at 0.44 log2.

For the substance “FLAG-tagged thyroglobulin, WT mutant C1264R [human] / UDP-glucose glycoprotein glucosyltansferase 1 [human (endogenous in HEK293 cells)] chain 1 C1245R”, in assay [3], the screen value came out at 0.25 log2.

“FLAG-tagged thyroglobulin, WT mutant L2284P [human] / oligosaccharyl transferase complex catalytic subunit B [human (endogenous in HEK293 cells)] chain 1 L2265P” came in with a screen value in assay [4] of 0.07 log2.

Take “FLAG-tagged thyroglobulin, WT mutant C1264R [human] / SEL1L adaptor subunit of ERAD E3 ubiquitin ligase [human (endogenous in HEK293 cells)] chain 1 C1245R”: the screen value in assay [1] amounted to 0.43 log2.

Take “FLAG-tagged thyroglobulin, WT mutant C1264R [human] / oligosaccharyl transferase complex catalytic subunit B [human (endogenous in HEK293 cells)] chain 1 C1245R”: the screen value in assay [4] was -0.21 log2.

In the case of “FLAG-tagged thyroglobulin, WT mutant A2234D [human] / OS9 endoplasmic reticulum lectin [human (endogenous in HEK293 cells)] chain 1 A2215D”, in assay [2], the screen value turned out to be 0.83 log2.

Substance “FLAG-tagged thyroglobulin, WT mutant L2284P [human] / calnexin [human (endogenous in HEK293 cells)] chain 1 L2265P” registered a screen value in assay [5] of 0.13 log2.

As for “FLAG-tagged thyroglobulin, WT mutant G2341R [human] / ER degradation enhancing alpha-mannosidase-like 3 [human (endogenous in HEK293 cells)] chain 1 G2322R”, the screen value in assay [6] stood at 0.09 log2.

As to “FLAG-tagged thyroglobulin, WT mutant A2234D [human] / glucosidase II alpha subunit [human (endogenous in HEK293 cells)] chain 1 A2215D”, the screen value in assay [7] was 0.2 log2.

The substance “FLAG-tagged thyroglobulin, WT mutant L2284P [human] / glucosidase II alpha subunit [human (endogenous in HEK293 cells)] chain 1 L2265P” had a screen value in assay [7] of 0.26 log2.

For “FLAG-tagged thyroglobulin, WT mutant L2284P [human] / SEL1L adaptor subunit of ERAD E3 ubiquitin ligase [human (endogenous in HEK293 cells)] chain 1 L2265P”, in assay [1], the screen value worked out at 0.49 log2.

“FLAG-tagged thyroglobulin, WT mutant G2341R [human] / OS9 endoplasmic reticulum lectin [human (endogenous in HEK293 cells)] chain 1 G2322R” returned a screen value in assay [2] of 0.73 log2.

Consider “FLAG-tagged thyroglobulin, WT mutant A2234D [human] / oligosaccharyl transferase complex catalytic subunit B [human (endogenous in HEK293 cells)] chain 1 A2215D”, for which the screen value in assay [4] was -0.11 log2.

In the case of “FLAG-tagged thyroglobulin, WT mutant L2284P [human] / ER degradation enhancing alpha-mannosidase-like 3 [human (endogenous in HEK293 cells)] chain 1 L2265P”, in assay [6], the screen value worked out at 0.2 log2.

In the case of “FLAG-tagged thyroglobulin, WT mutant C1264R [human] / ER degradation enhancing alpha-mannosidase-like 3 [human (endogenous in HEK293 cells)] chain 1 C1245R”, the screen value in assay [6] is 0.07 log2.

As for “FLAG-tagged thyroglobulin, WT mutant C1264R [human] / glucosidase II alpha subunit [human (endogenous in HEK293 cells)] chain 1 C1245R”, in assay [7], the screen value came out at 0.16 log2.

In assay [7], “FLAG-tagged thyroglobulin, WT mutant G2341R [human] / glucosidase II alpha subunit [human (endogenous in HEK293 cells)] chain 1 G2322R” gave a screen value of 0.36 log2.

In assay [2], “FLAG-tagged thyroglobulin, WT mutant L2284P [human] / OS9 endoplasmic reticulum lectin [human (endogenous in HEK293 cells)] chain 1 L2265P” yielded a screen value of 0.57 log2.

Take “FLAG-tagged thyroglobulin, WT mutant L2284P [human] / UDP-glucose glycoprotein glucosyltansferase 1 [human (endogenous in HEK293 cells)] chain 1 L2265P”: the screen value in assay [3] amounted to 0.58 log2.

As to “FLAG-tagged thyroglobulin, WT mutant A2234D [human] / UDP-glucose glycoprotein glucosyltansferase 1 [human (endogenous in HEK293 cells)] chain 1 A2215D”, in assay [3], the screen value came out at 0.38 log2.

In turn, “FLAG-tagged thyroglobulin, WT mutant G2341R [human] / calnexin [human (endogenous in HEK293 cells)] chain 1 G2322R” returned a screen value in assay [5] of 0.06 log2.

“FLAG-tagged thyroglobulin, WT mutant G2341R [human] / oligosaccharyl transferase complex catalytic subunit B [human (endogenous in HEK293 cells)] chain 1 G2322R” showed a screen value in assay [4] of 0.26 log2.

In turn, “FLAG-tagged thyroglobulin, WT mutant G2341R [human] / UDP-glucose glycoprotein glucosyltansferase 1 [human (endogenous in HEK293 cells)] chain 1 G2322R” gave a screen value in assay [3] of 0.64 log2.

On to “FLAG-tagged thyroglobulin, WT mutant A2234D [human] / ER degradation enhancing alpha-mannosidase-like 3 [human (endogenous in HEK293 cells)] chain 1 A2215D”, for which the screen value in assay [6] was found to be 0.2 log2.

“FLAG-tagged thyroglobulin, WT mutant A2234D [human] / calnexin [human (endogenous in HEK293 cells)] chain 1 A2215D” displayed a screen value in assay [5] of -0.1 log2.

With “FLAG-tagged thyroglobulin, WT mutant C1264R [human] / calnexin [human (endogenous in HEK293 cells)] chain 1 C1245R”, in assay [5], the screen value was -0.24 log2.
